The target of experiment [1] is nesprin-1α fragment SLR2-7ΔAD (SLR2-7 with the adaptive domain deleted) (human). In words: dynamic light scattering.
In experiment [2] the target is nesprin-1α fragment SLR2-7 (full-length nesprin-1α minus the transmembrane domain) (human). Nature of the experiment: dynamic light scattering.

“nesprin-1α fragment SLR2-7ΔAD (SLR2-7 with the adaptive domain deleted) (domain or fragment)” displayed a stoichiometry N in experiment [1] of 2.

Turning to “nesprin-1α fragment SLR2-7 (full-length nesprin-1α minus the transmembrane domain) (domain or fragment)”, the stoichiometry N in experiment [2] came out at 2.

The values are drawn from publication PMC2885798.
